Key:
[1] = target: T1, Plasmodium falciparum lactate dehydrogenase (PfLDH) (Plasmodium falciparum, UniProt Q76NM3 1-316); assay: SPR
[2] = target: T1, Plasmodium falciparum lactate …; assay: SPR; remark: listed apart in the source

Binder	Kd [1] [nM]	binding result [2]
TTTAGATCTTTGCCGCTGGGCGGTAGAACCATAGTGACCCAGCCGTCTAC (structured_DNA, biotin (position not given)) [biotinylated L2]	66 ± 7	–
nanotrain without L2 on SPR chip (NT0; 5'-biotin-D + C + B + A.1) (mixed, 5' biotin on D) DNA 1: CGGCAAAGATCTAAAGGCGACAAGGAAAATCCTTCAACGAAGTGGGTCGCCCTAACTCTCTATCCG DNA 2: TTGAGCTGGTTGTATGGCGACAAGGAAAATCCTTCAACGAAGTGGGTCGCCGGATAGAGAGTTAGG DNA 3: ATACAACCAGCTCAAGGCGACAAGGAAAATCCTTCAACGAAGTGGGTCGCCATTCATAAACATAAC DNA 4: GGCGACAAGGAAAATCCTTCAACGAAGTGGGTCGCCGTTATGTTTATGAAT	–	no binding
